The data set relates to MS2 coat protein. Nature of the data set: apparent KD of MS2 coat protein; higher = weaker reporter binding. To be noted: Eterna round: R107. The method, then: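 RNA-MaP round R107: designed RNA switches with theophylline, tryptophan, arginine or FMN aptamers are transcribed on-chip within common flanks. They are titrated with SNAP-549-labelled MS2 coat protein in RNA-MaP buffer (100 mM Tris pH 7.5, 80 mM KCl, 4 mM MgCl2), without ligand or with the indicated ligand. Median apparent KD per design.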

The mark [1] stands for this setting: input ligand: theophylline 20 uM.
Setting [2] is: input ligand: tryptophan 2.4 mM.
[3] abbreviates: input ligand: theophylline 2 mM.

Take “ACGGAGAUUGCUAAAUGUUGGCGAGCGGAUACCAGCCUAUUAUUGGGCCCUUGGCAGCCGACAUGAGGAUCACCCAUGUAAACAA [Berere]”: the “apparent KD of MS2 coat protein” value runs as follows: (input ligand: arginine 13.2 mM) 9.36 nM; under setting [1], 90.8 nM; under setting [2], 76.7 nM.
Take “ACGUAAUGCAGAAGGAGCGUCGACCUCUUACAUGAGGAUCACCCAUGUUGCAUGGUUGUACGACAGGUAGGUCGCUGAAGUACGA [#05 Exclusion - Arginine B]”: the “apparent KD of MS2 coat protein” value runs as follows: (input ligand: arginine 13.2 mM) 34.5 nM; (input ligand: none) 38.2 nM; under setting [1], 89.5 nM; under setting [3], 68.1 nM; under setting [2], 65.4 nM.
The corresponding values for “ACUACAUGAGGAUCACCCAUGUGUACUGAAGGAGCGGCGGAAACGCCAGGUAGGUCGCAGUACACCUCAACCAGCGGUCCUAAGU [EAA NP+V+V2 #1]” are 30 nM, 38.2 nM, 85.9 nM, 115 nM and 51.1 nM.
As to “ACUGCUUUAGCGGCCGCCACUACAUGGACACUUACACUUUCUUGUUACAUGAGGAUCACCCAUGUUAGGACCGGGCUUGUACGGA [theeternabot_exclusion_MS2_Trp_B_31]”, the “apparent KD of MS2 coat protein” value (input ligand: arginine 13.2 mM) was 30.5 nM, the “apparent KD of MS2 coat protein” value under setting [1] was 82.6 nM and the “apparent KD of MS2 coat protein” value under setting [3] was 68.4 nM.
Turning to “AGACAUGAGGAUCACCCAUGUAGCAUGGAUACCAGAUGUAGAUUAGUCCCUUGGCAGCUGUGGUGAAGUGAUGCAUUGCUCCUAG [Exclusion - Theophylline A (Freestyle 2)]”, the “apparent KD of MS2 coat protein” value is, setting by setting: (input ligand: arginine 13.2 mM) 29.9 nM; under setting [1], 74.3 nM; under setting [2], 50.1 nM.
For “AGACAUGAGGAUCACCCAUGUAGUAUGGAUACCAGAUCCAGAUUUAUCCCUUGGCAGCUGUGGUACAGCGUUGCAUCGCUCCUAG [Exclusion - Theophylline A (Freestyle 13)]”, the “apparent KD of MS2 coat protein” value is 28.9 nM (input ligand: arginine 13.2 mM), 44.5 nM under setting [1] and 31.7 nM under setting [2].
Regarding “AGACUGUCUUCGGACAGUCCGGACAGCCCGCGAGGACCGGUACGGCCGCCACUCGCGUGAGGAUCACCCAUGCGAGGCUGUCCGA [Omei Tryp A Exc A v1]”, the “apparent KD of MS2 coat protein” value (input ligand: arginine 13.2 mM) stood at 27.5 nM, the “apparent KD of MS2 coat protein” value under setting [1] worked out at 40.1 nM, the “apparent KD of MS2 coat protein” value under setting [3] was 46 nM and the “apparent KD of MS2 coat protein” value under setting [2] came to 69.9 nM.
As to “AGAGCAUUGACGGCCGCCACUUAUGUCACAUGAGGAUCACCCAUGUGAUGGGUGAUAGCCCGGUUGAGGACCGGGUCAAUGCUCA [Omei Tryp SS B v6]”, the “apparent KD of MS2 coat protein” value came to 14.8 nM (input ligand: arginine 13.2 mM), 18.5 nM under setting [1] and 15.2 nM under setting [3].
As for “AGAGUCAGACAAAAGUCUGGCUCAGCCGAAGGAGCGUCCGAAAGGACAGGUAGGUCGCGGUUACCUGAGGAUCACCCGGGUUCCU [ArgAS 25 #OpenEnded #AlternativeMS2]”, the “apparent KD of MS2 coat protein” value by setting is: (input ligand: arginine 13.2 mM) 56.7 nM; (input ligand: none) 219 nM; under setting [1], 377 nM; under setting [3], 590 nM; under setting [2], 184 nM.
For “AGAUUCGACACGGCCGCCACUUGUGGUGGAUUAUCCUAUGUCGAACAUGAGGAUCACCCAUGUACAAGGACCGGGUGUUGAGUCU [XTryp B #21]”, the “apparent KD of MS2 coat protein” value by setting is: (input ligand: arginine 13.2 mM) 156 nM; under setting [1], 365 nM; under setting [3], 447 nM.
For the sequence “AGCAUGUUAUCAGAUACCAGACAUCUUUUAAAACAUAUUACAUGAGGAUCACCCAUGUUGGUCCCUUGGCAGCUGAAAUAUUUCA [JR_Nu_SSTheophyB_Sub024]”, the “apparent KD of MS2 coat protein” value is, setting by setting: (input ligand: arginine 13.2 mM) 118 nM; under setting [1], 223 nM; under setting [2], 321 nM.
On to “AGCCACUCGAGUGAUCCUCACGAGUGGCUACGAGGACCGGUACGGCCGCCACUCGAAUUAACAUGAGGAUCACCCAUGUAAUAAU [Brourdmod03]”, for which the “apparent KD of MS2 coat protein” value runs as follows: (input ligand: arginine 13.2 mM) 29.2 nM; under setting [1], 188 nM; under setting [3], 270 nM.
In the case of “AGCUGGGAUCCUCAGCGUCAAAGACGCAGUCGAGGACCGGUACGGCCGCCACUCGACACGAGGAUCACCCGUGUCAUUCCCAGCA [TrypAX 1 #SwitchBubble #AlternativeMS2 #MS2Late #CuTurnoff]”, the “apparent KD of MS2 coat protein” value reads like this: (input ligand: arginine 13.2 mM) 34.5 nM; under setting [1], 387 nM; under setting [3], 584 nM; under setting [2], 1460 nM.
For “AGUACACGAACUGAUACCAGCCGGACAUGAGGAUCACCCAUGUCCUACCUCUGUUCGGUUGGCCCUUGGCAGCAGUUCGUGUACA [Omei Theo B SS A v9]”, the “apparent KD of MS2 coat protein” value was found to be 40.5 nM (input ligand: arginine 13.2 mM), 391 nM under setting [1] and 76.2 nM under setting [2].
With “AGUACCAAUGAGGAUACCAGAGUGCGACGCCGAAACCUUGACAUGAGGAUCACCCAUGUACUCCCUUGGCAGCCUGUACUUGCCA [theeternabot_exclusion_MS2_Theo_B_17]”, the “apparent KD of MS2 coat protein” value runs as follows: (input ligand: arginine 13.2 mM) 22.8 nM; under setting [1], 40.7 nM; under setting [2], 34.9 nM.
Taken in the same sequence, the figures for “AGUACUCGAACGGAUACCAGCCGGACAUGAGGAUCACCCAUGUCCUACCAUGUCUCGGUUGGCCCUUGGCAGCCGUUCGUGUACA [Omei Theo B SS A v2]” were 17 nM, 469 nM and 95.8 nM.
Consider “AGUAGCUGCCGAAGGAGCGCCGUGUUCCUACAUGAGGAUCACCCAUGUAGCGUUGGGUUACGGCAGGUAGGUCGCGGCGGAUAGG [Same State - Arginine B / B]”, for which the “apparent KD of MS2 coat protein” value was 30 nM (input ligand: arginine 13.2 mM); 34.3 nM (input ligand: none); 119 nM under setting [1]; 73.8 nM under setting [3]; 119 nM under setting [2].
In the case of “AGUCUUAAAGGAAGGAGCGCAGUCAUAACAUGAGGAUCACCCAUGUCGAUGUGAGGGUCAUUGCAGGUAGGUCGCCUUACUAAGA [Same State - Arginine B (Freestyle 5)]”, the “apparent KD of MS2 coat protein” value reads like this: (input ligand: arginine 13.2 mM) 22.8 nM; (input ligand: none) 40.4 nM; under setting [1], 46 nM; under setting [3], 30.2 nM; under setting [2], 40.6 nM.
Consider “AGUGUAUCCAUCGAUACCAGCCACAACGUAACAUACACAUGAGGAUCACCCAUGUUGUGUGGCCCUUGGCAGCGGUGCCUGUGUA [Same State - Theophylline B Attempt #1 (HarryS)]”, for which the “apparent KD of MS2 coat protein” value (input ligand: arginine 13.2 mM) came out at 14.4 nM, the “apparent KD of MS2 coat protein” value under setting [1] came out at 16.4 nM and the “apparent KD of MS2 coat protein” value under setting [2] is 13.9 nM.
Turning to “AGUGUUGUCUGAAGGAGCGGCCCUUGAUCCUCAUGAGACAUGAGGAUCACCCAUGUCUCGGGCCAGGUAGGUCGCAGGCAUCACA [Omei Arg B SS v1]”, the “apparent KD of MS2 coat protein” value runs as follows: (input ligand: arginine 13.2 mM) 22.6 nM; (input ligand: none) 20.5 nM; under setting [1], 34.1 nM; under setting [3], 23.3 nM; under setting [2], 23.7 nM.
“AGUUGCGUUGGAAGGAGCGGCAUGUGUGGGCCUCCUUACAAUACAUGAGGAUCACCCAUGUGCCAGGUAGGUCGCCAACACAGGU [Tiedmaqu]”: the “apparent KD of MS2 coat protein” value (input ligand: arginine 13.2 mM) stood at 47.9 nM; the “apparent KD of MS2 coat protein” value (input ligand: none) amounted to 40.2 nM; the “apparent KD of MS2 coat protein” value under setting [1] came to 79.8 nM; the “apparent KD of MS2 coat protein” value under setting [3] stood at 96 nM; the “apparent KD of MS2 coat protein” value under setting [2] is 54.8 nM.
Regarding “AUAAAUAAUAAAUAAGAUAAAAUGGGUGAACGAGGACCGGUACGGCCGCCACUCGGACAUGAGGAUCACCCAUGUCCAUGUGAAA [#22 Exclusion Tryptophan A]”, the “apparent KD of MS2 coat protein” value was determined as 14 nM (input ligand: arginine 13.2 mM), 19.8 nM under setting [1] and 20.2 nM under setting [3].
Consider “AUAACAUGAGGAUCACCCAUGUAAGCUGAAGGAGCGGACGAAAGUCCAGGUAGGUCGCAGCGCUCCUUCACCUCAUGAGAAGGAG [(M1)-(M2)-(Arg1)-(Arg2)-(A)'-(M)'-(A)''_Design2]”, for which the “apparent KD of MS2 coat protein” value is, setting by setting: (input ligand: arginine 13.2 mM) 23.4 nM; (input ligand: none) 23 nM; under setting [1], 31.4 nM; under setting [3], 25.3 nM; under setting [2], 22.4 nM.
As to “AUAACAUGAGGAUCACCCAUGUAUUGGUUACGAGGACCGGUACGGCCGCCACUCGUAUUAUAGUGGUAUUUUGUUUAUAUGAUAA [JR_Nu_TrtptoA_Sub019]”, the “apparent KD of MS2 coat protein” value reads like this: (input ligand: arginine 13.2 mM) 14.8 nM; under setting [1], 20 nM; under setting [3], 18.4 nM.
As for “AUACAUGAGGAUCACCCAUGUAUAGUUGAAGGAGCGACCAGAGGGUCAGGUAGGUCGCAACACAUGAGGAUCACCCAUGUAUCGA [DOUBLE!!! :-D #7]”, the “apparent KD of MS2 coat protein” value by setting is: (input ligand: arginine 13.2 mM) 30 nM; (input ligand: none) 49.9 nM; under setting [1], 52.9 nM; under setting [3], 47.5 nM; under setting [2], 34.6 nM.
The corresponding values for “AUACAUGAGGAUCACCCAUGUGAUGGCCGGCGAGGACCGGUACGGCCGCCACUCGUGAUCCGUCCCGAGAGCAAAGCUCUCGACA [Raatala]” are 4.9 nM, 53.7 nM, 436 nM, 1080 nM and 50.3 nM.

Source of the values: the supplement of paper PMC9170038.
